Assay results as given in US20220002426A1 (BIOINVENT INTERNATIONAL, published 2022).
Changes are numbered by the printed parent chain. In names and notes the source's numbering stands.

T1: recombinant human TNFR2-Fc protein (Sino Biological) (human, UniProt P20333 23-257, limits assumed)
T1 construct: bought; also called human TNFR2 protein; not shown: Fc part of the bought fusion protein; not described
T1 sequence (looked up): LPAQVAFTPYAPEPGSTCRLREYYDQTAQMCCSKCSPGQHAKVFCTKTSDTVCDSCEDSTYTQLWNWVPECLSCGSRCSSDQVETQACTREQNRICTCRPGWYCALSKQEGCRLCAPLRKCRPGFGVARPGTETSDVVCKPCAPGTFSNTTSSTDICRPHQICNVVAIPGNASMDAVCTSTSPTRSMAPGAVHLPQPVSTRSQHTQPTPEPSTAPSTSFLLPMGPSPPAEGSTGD

T2: recombinant mouse TNFR2-Fc protein (Sino Biological) (mouse, UniProt P25119 23-258, limits assumed)
T2 construct: bought; also called mTNFR2 protein; mTNFR2; not shown: Fc part of the bought fusion protein; not described
T2 sequence (looked up): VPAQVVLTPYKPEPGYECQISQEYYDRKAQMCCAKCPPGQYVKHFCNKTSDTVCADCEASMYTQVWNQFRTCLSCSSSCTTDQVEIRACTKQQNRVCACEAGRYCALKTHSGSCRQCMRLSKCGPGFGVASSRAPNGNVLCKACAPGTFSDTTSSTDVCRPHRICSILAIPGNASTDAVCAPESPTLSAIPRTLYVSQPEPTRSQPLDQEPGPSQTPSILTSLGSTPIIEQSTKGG

T3: wild type, full length human TNFR2 (on cells) (human, UniProt P20333 23-461)
T3 construct: whole, on cells; also called hTNFR2; TNFRII
T3 sequence (looked up): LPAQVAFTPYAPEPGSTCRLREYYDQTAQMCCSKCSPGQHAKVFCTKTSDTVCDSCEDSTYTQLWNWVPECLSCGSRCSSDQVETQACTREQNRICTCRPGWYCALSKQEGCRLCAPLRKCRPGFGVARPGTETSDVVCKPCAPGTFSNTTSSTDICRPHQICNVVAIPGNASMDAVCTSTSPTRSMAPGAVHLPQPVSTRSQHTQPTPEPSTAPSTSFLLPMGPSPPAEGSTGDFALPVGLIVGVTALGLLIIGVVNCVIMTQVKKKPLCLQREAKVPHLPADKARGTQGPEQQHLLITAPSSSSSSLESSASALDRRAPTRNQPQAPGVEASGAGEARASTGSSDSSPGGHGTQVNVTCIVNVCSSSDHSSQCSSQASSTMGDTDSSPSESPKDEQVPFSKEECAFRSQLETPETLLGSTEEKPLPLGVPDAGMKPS

T4: wild type, full length murine TNFR2 (on cells) (mouse, UniProt P25119 23-474)
T4 construct: whole, on cells; also called mTNFR2; mouse TNFR2
T4 sequence (looked up): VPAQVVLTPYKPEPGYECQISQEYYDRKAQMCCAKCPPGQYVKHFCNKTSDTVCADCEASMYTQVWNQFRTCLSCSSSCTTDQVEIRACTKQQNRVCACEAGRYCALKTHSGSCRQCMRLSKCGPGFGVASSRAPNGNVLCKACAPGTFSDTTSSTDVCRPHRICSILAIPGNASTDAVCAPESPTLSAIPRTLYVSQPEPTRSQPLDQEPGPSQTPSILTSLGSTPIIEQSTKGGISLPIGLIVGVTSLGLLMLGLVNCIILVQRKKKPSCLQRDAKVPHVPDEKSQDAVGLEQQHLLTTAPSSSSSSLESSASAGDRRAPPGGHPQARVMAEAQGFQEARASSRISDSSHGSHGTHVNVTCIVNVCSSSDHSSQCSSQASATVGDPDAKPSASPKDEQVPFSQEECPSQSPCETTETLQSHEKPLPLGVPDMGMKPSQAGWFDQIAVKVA

T5: hTNFRII (Sinobioologicals Cat nr10414-H08H) (human, UniProt P20333 23-257)
T5 construct: bought; also called immobilized TNFR2
T5 sequence (looked up): T1 sequence (looked up)

T6: Cynomolgus TNFR2 (on cynomolgus CD4+ T cells) (cynomolgus monkey (Macaca fascicularis), UniProt A0A2K5VET2 132-571)
T6 construct: whole, on cells; also called cmTNFR2; cynoTNFR2
T6 sequence: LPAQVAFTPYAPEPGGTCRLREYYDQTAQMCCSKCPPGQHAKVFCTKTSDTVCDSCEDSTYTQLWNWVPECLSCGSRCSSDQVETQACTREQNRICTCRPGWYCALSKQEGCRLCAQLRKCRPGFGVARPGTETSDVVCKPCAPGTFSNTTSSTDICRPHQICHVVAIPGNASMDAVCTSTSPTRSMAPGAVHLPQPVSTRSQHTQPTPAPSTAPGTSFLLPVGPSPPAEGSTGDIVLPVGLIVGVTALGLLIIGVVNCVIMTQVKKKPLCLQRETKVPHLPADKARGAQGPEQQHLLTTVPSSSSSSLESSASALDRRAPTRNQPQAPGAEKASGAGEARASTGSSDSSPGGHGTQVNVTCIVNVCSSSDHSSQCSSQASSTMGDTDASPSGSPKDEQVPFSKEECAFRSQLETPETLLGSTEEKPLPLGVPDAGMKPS

T7: mTNFRII (Sinobioologicals Cat No. 50128 M08H) (mouse, UniProt P25119 23-258, limits assumed)
T7 construct: bought
T7 sequence (looked up): T2 sequence (looked up)

B1: 001-F02 (antibody, V domains shown)
VH: EVQLLESGGGLVQPGGSLRLSCAASGFTFSDYYMSWVRQAPGKGLEWVANINTDGSEKYYLDSVKGRFTISRDNSKNTLYLQMNSLRAEDTAVYYCAREEYGAFDIWGQGTLVTVSS
VL: QSVLTQPPSASGTPGQRVTISCSGSSSNIGSNTVNWYQQLPGTAPKLLIYDNNKRPSGVPDRFSGSKSGTSASLAISGLRSEDEADYYCQSFDRGLSGSIVFGGGTKLTVLG
notes: IgG; In the MDSC assay tested as hIgG1, hIgG2 and N297Q
B2: 001-F06 (antibody, V domains shown)
VH: EVQLLESGGGLVQPGGSLRLSCAASGFTFSSYAMHWVRQAPGKGLEWVSAISGGATTTYYADSVKGRFTISRDNSKNTLYLQMNSLRAEDTAVYYCAKGGTGDPYYFDYWGQGTLVTVSS
VL: QSVLTQPPSASGTPGQRVTISCTGSSSNIGAGYDVHWYQQLPGTAPKLLIYRNNQRPSGVPDRFSGSKSGTSASLAISGLRSEDEADYYCAARDDGLSGPVFGGGTKLTVLG
notes: IgG
B3: 001-G04 (antibody, V domains shown)
VH: EVQLLESGGGLVQPGGSLRLSCAASGFTFNTYSMNWVRQAPGKGLEWVSVLYSDDDTHYADSVKGRFTISRDNSKNTLYLQMNSLRAEDTAVYYCARDCGGDCHSGDDAFDIWGQGTLVTVSS
VL: not shown
notes: IgG
B4: 001-G10 (antibody, V domains shown)
VH: EVQLLESGGGLVQPGGSLRLSCAASGFTFSAYGMHWVRQAPGKGLEWVAVVSYDGREKHYADSVKGRFTISRDNSKNTLYLQMNSLRAEDTAVYYCARSDGGYDSDSGYYWGQGTLVTVSS
VL: QSVLTQPPSASGTPGQRVTISCSGSTSNIGSNFVYWYQQLPGTAPKLLIYDNNKRPSGVPDRFSGSKSGTSASLAISGLRSEDEADYYCSSYAYSDNILFGGGTKLTVLG
notes: IgG
B5: 004-H02 (antibody, V domains shown)
VH: EVQLLESGGGLVQPGGSLRLSCAASGFTFDDYGMSWVRQAPGKGLEWVSTIYSGDNAYYGASVRGRFTISRDNSKNTLYLQMNSLRAEDTAVYYCARVYSSSWRKRAFDIWGQGTLVTVSS
VL: not shown
notes: IgG
B6: 005-B08 (antibody, V domains shown)
VH: EVQLLESGGGLVQPGGSLRLSCAASGFTFSDYYMSWIRQAPGKGLEWVAIISYDGGGKYFADPVKGRFTISRDNSKNTLYLQMNSLRAEDTAVYYCARYYGDGGFDPWGQGTLVTVSS
VL: not shown
notes: IgG
B7: 001-C03 (antibody, V domains shown)
VH: EVQLLESGGGLVQPGGSLRLSCAASGFTFSNAWMSWVRQAPGKGLEWVSAISVSGINTYYADSVKGRFTISRDNSKNTLYLQMNSLRAEDTAVYYCARDTGSLGVDYWGQGTLVTVSS
VL: QSVLTQPPSASGTPGQRVTISCSGSSSNIGSNTVNWYQQLPGTAPKLLIYRNNQRPSGVPDRFSGSKSGTSASLAISGLRSEDEADYYCQSYDSSLSISVFGGGTKLTVLG
notes: IgG; also called 1-003; 001-0O3
B8: 005-A05 (antibody, V domains shown)
VH: EVQLLESGGGLVQPGGSLRLSCAASGFTFSSYAMSWVRQAPGKGLEWVSTIIGSGANTWYADSVKGRFTISRDNSKNTLYLQMNSLRAEDTAVYYCARHEGYYYYGMDVWGQGTLVTVSS
VL: B2 VL with D34V, R52G, N54S, Q55N, R93W, G96S, S98N, P100R
notes: also called 5-A05 (mouse)
B9: mTNF-α (Gibco Cat. No. PMC3014) (ligand, mouse, UniProt P06804 80-235, looked up)
chain: LRSSSQNSSDKPVAHVVANHQVEEQLEWLSQRANALLANGMDLKDNQLVVPADGLYLVYSQVLFKGQGCPDYVLLTHTVSRFAISYQEKVNLLSAVKSPCPKDTPEGAELKPWYEPIYLGGVFQLEKGDQLSAEVNLPKYLDFAESGQVYFGVIAL

target: T1, recombinant human TNFR2-Fc protein …; test: ELISA, coated TNFR2-Fc
Procedure: (§1) 96-well plates (Lumitrac 600 LIA plate, Greiner) were coated overnight at 4° C. with recombinant human or mouse TNFR2-Fc protein (Sino Biological) at 1 pmol/well. After washing, titrated doses of anti-TNFR2 mAbs from 20 μg/ml to 0.1 ng/ml (133 nM to 1 pM) were allowed to bind for 1 hour. Plates were then washed again, and bound antibodies were detected with an anti-human-F(ab)-HRP secondary antibody (Jackson ImmunoResearch) diluted in 50 ng/ml. Super Signal ELISA Pico (Thermo Scientific) was used as substrate and the plates were analyzed using Tecan Ultra Microplate reader.

EC50 | Binder
0.31 nM | B1
0.15 nM | B2
1.7 nM | B3
0.29 nM | B4
0.2 nM | B5
0.17 nM | B6
0.75 nM | B7

target: T2, recombinant mouse TNFR2-Fc protein …; test: ELISA, coated TNFR2-Fc
Procedure: as §1

EC50 | Binder
1.4 nM | B8

target: T3, wild type, full length human TNFR2 (on …); test: FACS, activated CD4+ T cells
Procedure: (§2) The ability and affinity of TNFR2 n-CoDeR® antibodies to bind TNFR2 expressed on cells were obtained using in vitro activated CD4⁺ T cells. Human CD4⁺ T cells were stimulated with 50 ng/ml rhIL-2 (R&D systems) and Dynabeads® T-Activator CD3/CD28 for T-Cell Expansion and Activation (Gibco) 2-3 days at 37 degrees. […] Cells were then incubated with an APC conjugated a-human IgG secondary ab (Jackson) followed by analysis by flow cytometry (FACSVerse, BD).

EC50 | Binder
0.6 nM | B5
52.7 nM | B7

target: T3, wild type, full length human TNFR2 (on …); test: FACS, activated CD4+ T cells; remark: another data set of the same source
Procedure: as §2

EC50 | Binder
0.79 nM | B1
2.5 nM | B2
18 nM | B3
3.3 nM | B4
0.59 nM | B5
1.2 nM | B6
53 nM | B7

target: T4, wild type, full length murine TNFR2 (on …); test: FACS, activated mouse CD4+ T cells

EC50 | Binder
0.11 nM | B8

target: T4, wild type, full length murine TNFR2 (on …); test: FACS, transfected HEK293 cells

binding result | Binder
no binding | B1
no binding | B2
no binding | B4
no binding | B6

target: T5, hTNFRII (Sinobioologicals Cat …); test: blocking ELISA, coated hTNFRII, competitor hTNF-α-bio 5 nM
Procedure: (§3) 96-well plates were coated with hTNFRII (Sinobioologicals Cat nr10414-H08H) or mTNFRII (Sinobioologicals Cat No. 50128 M08H) at 2.5 pmol/well in ELISA coating buffer (0.1 M sodium carbonate pH 9.5) and incubated overnight at 4° C. After washing in ELISA wash buffer (PBS with 0.05% Tween20), the plates were incubated under slow agitation for 1 h in room temperature with n-CoDeR® mAbs at 10 μg/ml (one-dose ELISA) or 33 nM and subsequent 1:2 dilutions (titration ELISA) in block buffer containing 0.45% fish gelatin. […] Thereafter, plates were washed. For the human ELISAs, Streptavidin-HRP (Jackson Cat No. 016-030-084) diluted 1:2000 in block buffer were added and again incubated for 1 h at room temperature followed by washes first in ELISA buffer and then in Tris buffer (pH 9.8). The substrate (Super Signal ELISA Pico from Thermo Scientific Cat. No. 37069) were thereafter diluted according to the manufacturers instruction, added to the wells and incubated in darkness for 10 min before reading in a Tecan Ultra. […] After washing, anti-Rabbit-HRP diluted 1:10 000 in block buffer was added and again incubated for 1 h at room temperature. Substrate adding and reading were performed as above.

EC50 | Binder
3.2 nM | B3
1.6 nM | B4
0.4 nM | B5
0.3 nM | B6

target: T6, Cynomolgus TNFR2 (on cynomolgus CD4+ T …); test: FACS, stimulated cynomolgus CD4+ T cells, % over isotype
Procedure: To validate the cross-reactivity of TNFR2 antibodies to Cynomolgus, Cynomolgus CD4⁺ T cells were stimulated 2 days with 50 ng/ml PMA (Sigma) and 100 ng/ml lonomycin (Sigma). Cells were incubated with TNFR2 specific n-CoDeR® antibodies at 3 different concentrations (0.1, 1 and 10 μg/ml) and then incubated with an APC conjugated secondary a-human IgG reagent (Jackson).

binding result | Binder
no binding (tested: 10 µg/ml) | B3

target: T7, mTNFRII (Sinobioologicals Cat No. 50128 …); test: ELISA, coated mTNFRII, mTNF-α 2 nM, rabbit anti-mTNF-α and anti-rabbit-HRP
Procedure: as §3

binding result | Binder
binds | B9
